{"source": "paper PMC3696110", "about": "“Hsp70 Oligomerization Is Mediated by an Interaction between the Interdomain Linker and the Substrate-Binding Domain” (PLoS ONE, 2013)", "molecular_target": "SBD641 (384-641), full-length substrate-binding domain of human Hsp70 with the interdomain linker (human) (UniProt P0DMV8)", "assay": "native MS; nESI-MS of SBD641 with NR peptide at 1:1 molar ratio, 150 mM ammonium acetate pH 7.4, sample cone voltage 60 V (raised for collisional activation)", "data": [{"binder": "NRLLLTG", "note": "[NR peptide (NRLLLTG)]", "values": [{"measurement": "peptide molecules bound per SBD641 dimer", "result": "< 2"}, {"measurement": "stoichiometry N", "result": 1}]}]}
